Measured values published in paper PMC9328939, “A Randomized Double‐Blind Placebo‐Controlled First‐In‐Human Phase 1 Trial of TransCon PTH in Healthy Adults” (Journal of Bone and Mineral Research, 2020).

Legend:
healthy adults = experiment: Safety and tolerability: adverse events in SAD and MAD cohorts; conditions: SAD, n = 8; for Any drug-related AE (%) / Any moderate or severe AE (%) / Any AE (%) / Any SAE (%): number of subjects (% of cohort); for Dizziness, light-headedness (including postural/orthostatic dizziness, syncope, presyncope) (%) / Tachycardia/palpitations (%): number of subjects (%)
Procedure: Subjects attended a screening visit; those who met eligibility criteria were randomly assigned to a SAD or MAD cohort (n = 10/cohort; eight active and two placebo) and received a single or multiple dose(s) of TransCon PTH, respectively, via a syringe and 31G 8‐mm needle s.c. to the abdomen. […] Multiple TransCon PTH doses administered daily for 10 days ranged from 3.5 to 24 μg PTH(1‐34)/day. Throughout drug administration and for 4 days following the final dose, subjects remained housed for laboratory tests and safety monitoring.
At screening, demographic information, medical history, and concomitant medications, vital signs with height and weight, hematology, blood chemistry (including sCa, sP, and sMg), intact endogenous PTH(1‐84), 1,25‐dihydroxyvitamin D, and urine samples were collected. In addition, a limited physical examination and electrocardiogram (ECG) were performed.
Via regular vital sign checks, physical examinations, and safety laboratory tests, subjects were also monitored for adverse events (AEs) throughout the trial, including injection site reactions (erythema, ecchymosis, edema, pruritus, and pain).

[1] = test system: anti-PTH binding antibodies; experiment: Anti-PTH binding antibodies, electrochemiluminescence bridging assay; assay type: in vivo, human; conditions: MAD cohorts, serum predose and day 14; screening and confirmatory assay
Procedure: Twice‐daily 12‐hour urine samples (including calcium, phosphorus, magnesium, and creatinine) were also collected. In MAD cohorts, serum samples collected from TransCon PTH‐treated and placebo‐treated subjects predose and postdose on day 14 were analyzed for anti‐PTH binding antibodies by BioAgilytix (Durham, NC, USA) using an electrochemiluminescence bridging assay. Samples were analyzed using a multitiered approach consisting of a screening assay and a confirmatory assay.

[2] = Pharmacokinetics of Free PTH after 10 daily s.c. doses of TransCon PTH (MAD cohorts); conditions: for Free PTH AUC0-24h / Free PTH t½ / Free PTH Cmax: geometric mean (CV%); for Free PTH tmax: median (min-max)
Procedure: (§1) Subjects attended a screening visit; those who met eligibility criteria were randomly assigned to a SAD or MAD cohort (n = 10/cohort; eight active and two placebo) and received a single or multiple dose(s) of TransCon PTH, respectively, via a syringe and 31G 8‐mm needle s.c. to the abdomen. Single TransCon PTH doses ranged from 3.5 to 124 μg PTH(1‐34) (containing PTH(1‐34) [Bachem AG, Bubendorf, Switzerland], identical to the first 34 amino acids of rhPTH). Multiple TransCon PTH doses administered daily for 10 days ranged from 3.5 to 24 μg PTH(1‐34)/day.
(§2) The primary PK endpoints therefore included Free PTH (defined as the sum of Free PTH(1‐34) and Free PTH(1‐33)) as well as TransCon PTH.
(§3) The PK samples were analyzed by PRA Health Sciences (Assens, the Netherlands); Free PTH was quantified using protein precipitation, liquid‐liquid extraction, and solid‐phase extraction followed by ultra high‐performance liquid chromatography with tandem mass spectrometry detection measuring the two peptides, PTH(1‐34) and PTH(1‐33), by collection of both transitions simultaneously. Free PTH was calculated only if samples contained quantifiable levels of both Free PTH(1‐34) and Free PTH(1‐33); ie, above 1.40 and 0.958 pg/mL for Free PTH(1‐34) and Free PTH(1‐33), respectively. No lower limit of quantification was calculated for Free PTH because the ratio between Free PTH(1‐34) and Free PTH(1‐33) is not constant.
(§4) The PK parameters were calculated using Phoenix WinNonlin, version 6.4 (Certara USA, Inc., Princeton, NJ, USA). For Free PTH, tmax was defined as the time to maximum observed concentration and Cmax was defined as the maximum observed concentration. […] Peak‐to‐trough was calculated as the ratio of Cmax to C24h at steady‐state.

[3] = Pharmacokinetics of Free PTH after a single s.c. dose of TransCon PTH (SAD cohorts); assay type: in vivo, human; conditions: for Free PTH tmax: median (min-max); for Free PTH Cmax / Free PTH t½ / Free PTH AUC0-t: geometric mean (CV%)
Procedure: as §1, §2, §3, §4

[4] = single s.c. 3.5 μg, vasodilatory AEs at least possibly related to study drug
[5] = single s.c. 12 μg, at least possibly related
[6] = single s.c. 32 μg, at least possibly related
[7] = single s.c. 48 μg, at least possibly related
[8] = single s.c. 72 μg, at least possibly related
[9] = single s.c. 100 μg, at least possibly related
[10] = single s.c. 124 μg, at least possibly related
[11] = MAD, 12 μg PTH(1-34)/day s.c. x 10 days, n = 6
[12] = MAD, 16 μg PTH(1-34)/day s.c. x 10 days, n = 7
[13] = MAD, 20 μg PTH(1-34)/day s.c. x 10 days, n = 6
[14] = MAD, 24 μg PTH(1-34)/day s.c. x 10 days, n = 3
[15] = single s.c. 72 μg PTH(1-34), n = 7
[16] = single s.c. 100 μg PTH(1-34), n = 8
[17] = single s.c. 124 μg PTH(1-34), n = 8

Which “Any drug-related AE (%)” value (healthy adults; single s.c. 3.5 μg) does the source give for “TransCon PTH: long-acting, essentially inactive prodrug: PTH(1-34) transiently bound to an inert 40 kDa mPEG carrier via a proprietary autocleaving linker” here?
Its value is 1 (12.5) %.

And the “Any moderate or severe AE (%)” value (healthy adults; single s.c. 3.5 μg)?
The value was 0 (0) %.

And the “Dizziness, light-headedness (including postural/orthostatic dizziness, syncope, presyncope) (%)” value (healthy adults; [4])?
The value was 0 (0.0) %.

And the “Tachycardia/palpitations (%)” value (healthy adults; [4])?
Its value is 0 (0.0) %.

And the “Dizziness, light-headedness (including postural/orthostatic dizziness, syncope, presyncope) (%)” value (healthy adults; [5])?
The value was 0 (0.0) %.

And the “Tachycardia/palpitations (%)” value (healthy adults; [5])?
Its value is 0 (0.0) %.

And the “Any AE (%)” value (healthy adults; single s.c. 12 μg)?
Its value is 3 (37.5) %.

And the “Any SAE (%)” value (healthy adults; single s.c. 12 μg)?
The value was 1 (12.5) %.

What about the “Any drug-related AE (%)” value (healthy adults; single s.c. 12 μg) of the same substance?
Its value is 1 (12.5) %.

And the “Any moderate or severe AE (%)” value (healthy adults; single s.c. 12 μg)?
The value was 1 (12.5) %.

And the “Dizziness, light-headedness (including postural/orthostatic dizziness, syncope, presyncope) (%)” value (healthy adults; [6])?
Its value is 1 (12.5) %.

What about the “Tachycardia/palpitations (%)” value (healthy adults; [6]) of the same substance?
Its value is 0 (0.0) %.

And the “Any AE (%)” value (healthy adults; single s.c. 32 μg)?
Its value is 3 (37.5) %.

And the “Any SAE (%)” value (healthy adults; single s.c. 32 μg)?
The value was 0 (0) %.

What about the “Any drug-related AE (%)” value (healthy adults; single s.c. 32 μg) of the same substance?
The value was 2 (25.0) %.

And the “Any moderate or severe AE (%)” value (healthy adults; single s.c. 32 μg)?
Its value is 0 (0) %.

What about the “Dizziness, light-headedness (including postural/orthostatic dizziness, syncope, presyncope) (%)” value (healthy adults; [7]) of the same substance?
The value was 0 (0.0) %.

And the “Tachycardia/palpitations (%)” value (healthy adults; [7])?
The value was 0 (0.0) %.

And the “Any AE (%)” value (healthy adults; single s.c. 48 μg)?
The value was 6 (75.0) %.

And the “Any SAE (%)” value (healthy adults; single s.c. 48 μg)?
Its value is 0 (0) %.

And the “Any drug-related AE (%)” value (healthy adults; single s.c. 48 μg)?
The value was 5 (62.5) %.

What about the “Any moderate or severe AE (%)” value (healthy adults; single s.c. 48 μg) of the same substance?
The value was 2 (25.0) %.

What about the “Dizziness, light-headedness (including postural/orthostatic dizziness, syncope, presyncope) (%)” value (healthy adults; [8]) of the same substance?
Its value is 0 (0.0) %.

And the “Tachycardia/palpitations (%)” value (healthy adults; [8])?
Its value is 0 (0.0) %.

What about the “Any AE (%)” value (healthy adults; single s.c. 72 μg) of the same substance?
Its value is 2 (25.0) %.

And the “Any SAE (%)” value (healthy adults; single s.c. 72 μg)?
The value was 0 (0) %.

What about the “Any drug-related AE (%)” value (healthy adults; single s.c. 72 μg) of the same substance?
The value was 0 (0.0) %.

And the “Any moderate or severe AE (%)” value (healthy adults; single s.c. 72 μg)?
Its value is 1 (12.5) %.

What about the “Dizziness, light-headedness (including postural/orthostatic dizziness, syncope, presyncope) (%)” value (healthy adults; [9]) of the same substance?
Its value is 2 (25.0) %.

And the “Tachycardia/palpitations (%)” value (healthy adults; [9])?
Its value is 0 (0.0) %.

And the “Any AE (%)” value (healthy adults; single s.c. 100 μg)?
Its value is 4 (50.0) %.

And the “Any SAE (%)” value (healthy adults; single s.c. 100 μg)?
Its value is 0 (0) %.

And the “Any drug-related AE (%)” value (healthy adults; single s.c. 100 μg)?
The value was 3 (37.5) %.

And the “Any moderate or severe AE (%)” value (healthy adults; single s.c. 100 μg)?
The value was 1 (12.5) %.

What about the “Dizziness, light-headedness (including postural/orthostatic dizziness, syncope, presyncope) (%)” value (healthy adults; [10]) of the same substance?
The value was 1 (12.5) %.

And the “Tachycardia/palpitations (%)” value (healthy adults; [10])?
Its value is 0 (0.0) %.

And the “Any AE (%)” value (healthy adults; single s.c. 124 μg)?
Its value is 4 (50.0) %.

What about the “Any SAE (%)” value (healthy adults; single s.c. 124 μg) of the same substance?
Its value is 0 (0) %.

What about the “Any drug-related AE (%)” value (healthy adults; single s.c. 124 μg) of the same substance?
The value was 2 (25.0) %.

What about the “Any moderate or severe AE (%)” value (healthy adults; single s.c. 124 μg) of the same substance?
Its value is 1 (12.5) %.

And the anti-PTH antibodies [1]?
Its anti-PTH antibodies is “No anti‐PTH antibodies were detected”.

And the “Free PTH AUC0-24h” value ([2]; MAD, 12 μg PTH(1-34)/day s.c. x 10 days, healthy adults, plasma, UHPLC-MS/MS, n = 5)?
Its value is 122 (13.4) (n = 5) h*pg/mL.

And the “Free PTH t½” value ([2]; MAD, 12 μg PTH(1-34)/day s.c. x 10 days, n = 4)?
Its value is 64.8 (39.2) (n = 4) h.

What about the “Free PTH Cmax” value [2, 11] of the same substance?
The value was 6.24 (13.1) (n = 6) pg/mL.

What about the “Free PTH tmax” value [2, 11] of the same substance?
Its value is 4.0 (4.0–16.0) (n = 6) h.

What about the “Free PTH t½” value ([2]; MAD, 16 μg PTH(1-34)/day s.c. x 10 days, n = 4) of the same substance?
Its value is 60.0 (20.3) (n = 4) h.

And the “Free PTH AUC0-24h” value ([2]; MAD, 16 μg PTH(1-34)/day s.c. x 10 days, n = 5)?
Its value is 152 (9.4) (n = 5) h*pg/mL.

What about the “Free PTH Cmax” value [2, 12] of the same substance?
The value was 6.87 (16.8) (n = 7) pg/mL.

What about the “Free PTH tmax” value [2, 12] of the same substance?
The value was 8.0 (4.0–12.0) (n = 7) h.

What about the “Free PTH t½” value ([2]; MAD, 20 μg PTH(1-34)/day s.c. x 10 days, n = 5) of the same substance?
The value was 51.7 (44.5) (n = 5) h.

What about the “Free PTH AUC0-24h” value [2, 13] of the same substance?
The value was 165 (21.7) (n = 6) h*pg/mL.

And the “Free PTH Cmax” value [2, 13]?
The value was 8.30 (21.4) (n = 6) pg/mL.

And the “Free PTH tmax” value [2, 13]?
Its value is 6.1 (4.0–16.1) (n = 6) h.

And the “Free PTH AUC0-24h” value [2, 14]?
The value was 231 (24.2) (n = 3) h*pg/mL.

And the “Free PTH Cmax” value [2, 14]?
Its value is 11.1 (27.6) (n = 3) pg/mL.

And the “Free PTH t½” value [2, 14]?
Its value is 69.0 (22.3) (n = 3) h.

And the “Free PTH tmax” value [2, 14]?
Its value is 7.9 (4.0–12.0) (n = 3) h.

What about the “Free PTH level” value ([2]; MAD, TransCon PTH 12 μg PTH(1-34)/day) of the same substance?
The value was 5 pg/mL.

What about the “mean effective half-life of Free PTH” value ([2]; after multiple daily s.c. dosings, healthy adults) of the same substance?
The value was “approximately 60 hours”.

And the “Free PTH tmax” value ([3]; single s.c. 48 μg PTH(1-34), healthy adults, n = 7)?
The value was 8.0 (4.0–24.0) (n = 7) h.

What about the “Free PTH Cmax” value ([3]; single s.c. 48 μg PTH(1-34), healthy adults, plasma, UHPLC-MS/MS, n = 7) of the same substance?
Its value is 6.61 (19.7) (n = 7) pg/mL.

And the “Free PTH t½” value ([3]; single s.c. 72 μg PTH(1-34), n = 5)?
The value was 54.4 (18.9) (n = 5) h.

What about the “Free PTH Cmax” value [3, 15] of the same substance?
The value was 7.67 (28.5) (n = 7) pg/mL.

And the “Free PTH AUC0-t” value ([3]; single s.c. 72 μg PTH(1-34), healthy adults, plasma, UHPLC-MS/MS, n = 5)?
The value was 420 (20.3) (n = 5) h*pg/mL.

What about the “Free PTH tmax” value [3, 15] of the same substance?
The value was 4.0 (4.0–60.3) (n = 7) h.

And the “Free PTH t½” value ([3]; single s.c. 100 μg PTH(1-34), n = 7)?
Its value is 51.0 (32.4) (n = 7) h.

And the “Free PTH AUC0-t” value [3, 16]?
Its value is 594 (17.3) (n = 8) h*pg/mL.

And the “Free PTH Cmax” value [3, 16]?
Its value is 12.9 (11.7) (n = 8) pg/mL.

And the “Free PTH tmax” value [3, 16]?
Its value is 6.0 (4.0–8.0) (n = 8) h.

What about the “Free PTH t½” value ([3]; single s.c. 124 μg PTH(1-34), n = 7) of the same substance?
Its value is 55.7 (37.1) (n = 7) h.

And the “Free PTH AUC0-t” value [3, 17]?
The value was 684 (36.9) (n = 8) h*pg/mL.

And the “Free PTH Cmax” value [3, 17]?
Its value is 13.8 (45.5) (n = 8) pg/mL.

And the “Free PTH tmax” value [3, 17]?
The value was 4.0 (4.0–60.0) (n = 8) h.
